This passage reports percent binding relative to wild type results from PMC2118910.

What all share (assay): cell-cell adhesion assay
Assay [1] has as its target human CD8 alpha mutant M9 (human) (UniProt P01732).
The target in assay [2] is human CD8 alpha mutant M3 (human).
Assay [3] concerns the target human CD8 alpha mutant M5 (human) (UniProt P01732).
In assay [4] the target is human CD8 alpha mutant M2 (human) (UniProt P01732).
In assay [5] the target is human CD8 alpha mutant M6 (human).
Assay [6] addresses mouse CD8 alpha (Lyt-2) (mouse) (UniProt P01731).
UniProt P01731, sequence (P01731 28-247): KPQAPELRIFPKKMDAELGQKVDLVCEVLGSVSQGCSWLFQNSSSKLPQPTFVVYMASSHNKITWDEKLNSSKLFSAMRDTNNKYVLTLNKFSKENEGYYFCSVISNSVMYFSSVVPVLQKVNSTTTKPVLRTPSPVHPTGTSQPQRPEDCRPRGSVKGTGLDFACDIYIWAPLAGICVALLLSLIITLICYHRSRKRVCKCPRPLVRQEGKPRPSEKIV
Assay [7] concerns the target human CD8 alpha mutant M1 (human).
In assay [8] the target is human CD8 alpha mutant M8 (human) (UniProt P01732).
Assay [9] has as its target human CD8 alpha mutant M4 (human) (UniProt P01732).
In assay [10] the target is human CD8 alpha mutant M7 (human).
Assay [11] deals with human CD8 alpha mutant M10 (human).

In the case of “HLA class I on the human B lymphoblastoid cell line UC”, the percent binding relative to wild type in assay [1] is 56.9%; in [2], 13.5%; in assay [3], 11%; in assay [4], 1.7%; in [5], 49.1%; in assay [6], -0.6 to 5.8%. The percent binding relative to wild type is 15.7% in assay [7]; above 80% in assay [8]; above 80% in assay [9]; 31.3% in [10]; 42.6% in assay [11].
